Assay results as given in IntAct's records for PubMed 11641419.

B1: Prolactin-releasing peptide receptor (Homo sapiens), P49683 (parent)
chain: MASSTTRGPRVSDLFSGLPPAVTTPANQSAEASAGNGSVAGADAPAVTPFQSLQLVHQLKGLIVLLYSVVVVVGLVGNCLLVLVIARVRRLHNVTNFLIGNLALSDVLMCTACVPLTLAYAFEPRGWVFGGGLCHLVFFLQPVTVYVSVFTLTTIAVDRYVVLVHPLRRRISLRLSAYAVLAIWALSAVLALPAAVHTYHVELKPHDVRLCEEFWGSQERQRQLYAWGLLLVTYLLPLLVILLSYVRVSVKLRNRVVPGCVTQSQADWDRARRRRTFCLLVVIVVVFAVCWLPLHVFNLLRDLDPHAIDPYAFGLVQLLCHWLAMSSACYNPFIYAWLHDSFREELRKLLVAWPRKIAPHGQNMTVSVVI

Variants of: B1
Conditions: with grip1_human GRIP1, Q9Y3R0
Sequence of grip1_human GRIP1, Q9Y3R0 (Q9Y3R0 whole entry): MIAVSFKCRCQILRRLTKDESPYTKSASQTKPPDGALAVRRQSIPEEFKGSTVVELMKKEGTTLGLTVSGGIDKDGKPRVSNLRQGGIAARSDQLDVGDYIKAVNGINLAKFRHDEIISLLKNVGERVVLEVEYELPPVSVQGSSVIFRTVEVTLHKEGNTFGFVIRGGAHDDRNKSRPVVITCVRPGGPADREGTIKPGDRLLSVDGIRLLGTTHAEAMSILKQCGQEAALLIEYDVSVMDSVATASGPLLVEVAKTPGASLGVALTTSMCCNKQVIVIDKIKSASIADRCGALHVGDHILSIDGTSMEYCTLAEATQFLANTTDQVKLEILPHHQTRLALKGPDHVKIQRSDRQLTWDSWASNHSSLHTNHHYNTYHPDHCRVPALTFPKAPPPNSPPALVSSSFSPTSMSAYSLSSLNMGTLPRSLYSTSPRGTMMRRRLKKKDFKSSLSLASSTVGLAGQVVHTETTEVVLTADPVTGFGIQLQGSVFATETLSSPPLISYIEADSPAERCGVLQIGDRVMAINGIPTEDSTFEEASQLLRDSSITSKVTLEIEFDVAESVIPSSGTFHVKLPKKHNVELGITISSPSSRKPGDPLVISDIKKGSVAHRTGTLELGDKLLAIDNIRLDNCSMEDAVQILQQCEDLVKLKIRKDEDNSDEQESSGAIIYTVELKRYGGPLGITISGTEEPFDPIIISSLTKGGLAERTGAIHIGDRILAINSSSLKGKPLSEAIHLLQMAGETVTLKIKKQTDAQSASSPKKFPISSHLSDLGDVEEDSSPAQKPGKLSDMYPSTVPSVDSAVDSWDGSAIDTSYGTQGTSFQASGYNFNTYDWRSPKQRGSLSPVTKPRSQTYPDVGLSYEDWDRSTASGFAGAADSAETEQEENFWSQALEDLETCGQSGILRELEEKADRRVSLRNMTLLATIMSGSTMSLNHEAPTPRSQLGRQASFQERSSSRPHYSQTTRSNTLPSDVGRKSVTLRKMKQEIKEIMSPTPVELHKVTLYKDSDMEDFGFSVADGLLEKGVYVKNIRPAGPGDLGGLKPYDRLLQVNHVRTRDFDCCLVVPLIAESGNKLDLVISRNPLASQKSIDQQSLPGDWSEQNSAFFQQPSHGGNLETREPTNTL

Effect of a mutation on the interaction, disrupting interaction:
MASSTTRGPRVSDLFSGLPPAVTTPANQSAEASAGNGSVAGADAPAVTPFQSLQLVHQLKGLIVLLYSVVVVVGLVGNCLLVLVIARVRRLHNVTNFLIGNLALSDVLMCTACVPLTLAYAFEPRGWVFGGGLCHLVFFLQPVTVYVSVFTLTTIAVDRYVVLVHPLRRRISLRLSAYAVLAIWALSAVLALPAAVHTYHVELKPHDVRLCEEFWGSQERQRQLYAWGLLLVTYLLPLLVILLSYVRVSVKLRNRVVPGCVTQSQADWDRARRRRTFCLLVVIVVVFAVCWLPLHVFNLLRDLDPHAIDPYAFGLVQLLCHWLAMSSACYNPFIYAWLHDSFREELRKLLVAWPRKIAPHGQNMTVAVVI [S367A]
MASSTTRGPRVSDLFSGLPPAVTTPANQSAEASAGNGSVAGADAPAVTPFQSLQLVHQLKGLIVLLYSVVVVVGLVGNCLLVLVIARVRRLHNVTNFLIGNLALSDVLMCTACVPLTLAYAFEPRGWVFGGGLCHLVFFLQPVTVYVSVFTLTTIAVDRYVVLVHPLRRRISLRLSAYAVLAIWALSAVLALPAAVHTYHVELKPHDVRLCEEFWGSQERQRQLYAWGLLLVTYLLPLLVILLSYVRVSVKLRNRVVPGCVTQSQADWDRARRRRTFCLLVVIVVVFAVCWLPLHVFNLLRDLDPHAIDPYAFGLVQLLCHWLAMSSACYNPFIYAWLHDSFREELRKLLVAWPRKIAPHGQNMTVSAVI [V368A]
MASSTTRGPRVSDLFSGLPPAVTTPANQSAEASAGNGSVAGADAPAVTPFQSLQLVHQLKGLIVLLYSVVVVVGLVGNCLLVLVIARVRRLHNVTNFLIGNLALSDVLMCTACVPLTLAYAFEPRGWVFGGGLCHLVFFLQPVTVYVSVFTLTTIAVDRYVVLVHPLRRRISLRLSAYAVLAIWALSAVLALPAAVHTYHVELKPHDVRLCEEFWGSQERQRQLYAWGLLLVTYLLPLLVILLSYVRVSVKLRNRVVPGCVTQSQADWDRARRRRTFCLLVVIVVVFAVCWLPLHVFNLLRDLDPHAIDPYAFGLVQLLCHWLAMSSACYNPFIYAWLHDSFREELRKLLVAWPRKIAPHGQNMTVSVVA [I370A]
